The source of these data is publication PMC5939945 (ACS combinatorial science, 2017).

The target in test [1] is biotinylated eIF4E (eukaryotic translation initiation factor 4E), N-terminal HaloTag fusion (UniProt P06730). The test can be described thus: ELISA. Background: In an ELISA, binding on a coated surface is turned into a signal by an enzyme label.
Test [2] has the same target. The test can be described thus: PPI cat-ELCCA.
A further test addresses eIF4E (Homo sapiens, UniProt P06730). The test can be described thus: PPI cat-ELCCA chemiluminescent competition assay of eIF4E–4E-BP1. The test is classed as binding.

Chain of unlabeled 4E-BP1 protein (Q13541 whole entry): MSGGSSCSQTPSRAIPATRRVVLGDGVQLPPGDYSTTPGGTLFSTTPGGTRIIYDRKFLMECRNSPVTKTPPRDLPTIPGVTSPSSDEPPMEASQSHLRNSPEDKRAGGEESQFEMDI
Chain of biotinylated eIF4E (eukaryotic translation initiation factor 4E), N-terminal HaloTag fusion (P06730 whole entry, the tested form may be a part): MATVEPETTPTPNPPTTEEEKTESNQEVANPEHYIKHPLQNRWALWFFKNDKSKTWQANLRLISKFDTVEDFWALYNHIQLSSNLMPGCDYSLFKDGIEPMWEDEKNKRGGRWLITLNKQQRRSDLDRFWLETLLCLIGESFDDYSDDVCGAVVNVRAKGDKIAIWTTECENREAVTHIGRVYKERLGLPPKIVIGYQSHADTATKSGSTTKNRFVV
Chain of eIF4E (P06730 2-217): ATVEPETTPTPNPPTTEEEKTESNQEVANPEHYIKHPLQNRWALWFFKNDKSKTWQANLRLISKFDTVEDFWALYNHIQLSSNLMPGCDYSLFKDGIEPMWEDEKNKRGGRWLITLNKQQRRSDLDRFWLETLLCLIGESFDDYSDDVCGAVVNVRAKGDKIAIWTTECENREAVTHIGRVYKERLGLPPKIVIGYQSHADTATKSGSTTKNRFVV
Chain of eIF4E (Q13541 2-118 partner): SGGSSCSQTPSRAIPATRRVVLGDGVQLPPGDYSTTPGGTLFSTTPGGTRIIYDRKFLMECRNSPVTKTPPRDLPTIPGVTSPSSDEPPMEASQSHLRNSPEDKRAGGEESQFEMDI
Chain of eIF4E (Q04637 whole entry partner): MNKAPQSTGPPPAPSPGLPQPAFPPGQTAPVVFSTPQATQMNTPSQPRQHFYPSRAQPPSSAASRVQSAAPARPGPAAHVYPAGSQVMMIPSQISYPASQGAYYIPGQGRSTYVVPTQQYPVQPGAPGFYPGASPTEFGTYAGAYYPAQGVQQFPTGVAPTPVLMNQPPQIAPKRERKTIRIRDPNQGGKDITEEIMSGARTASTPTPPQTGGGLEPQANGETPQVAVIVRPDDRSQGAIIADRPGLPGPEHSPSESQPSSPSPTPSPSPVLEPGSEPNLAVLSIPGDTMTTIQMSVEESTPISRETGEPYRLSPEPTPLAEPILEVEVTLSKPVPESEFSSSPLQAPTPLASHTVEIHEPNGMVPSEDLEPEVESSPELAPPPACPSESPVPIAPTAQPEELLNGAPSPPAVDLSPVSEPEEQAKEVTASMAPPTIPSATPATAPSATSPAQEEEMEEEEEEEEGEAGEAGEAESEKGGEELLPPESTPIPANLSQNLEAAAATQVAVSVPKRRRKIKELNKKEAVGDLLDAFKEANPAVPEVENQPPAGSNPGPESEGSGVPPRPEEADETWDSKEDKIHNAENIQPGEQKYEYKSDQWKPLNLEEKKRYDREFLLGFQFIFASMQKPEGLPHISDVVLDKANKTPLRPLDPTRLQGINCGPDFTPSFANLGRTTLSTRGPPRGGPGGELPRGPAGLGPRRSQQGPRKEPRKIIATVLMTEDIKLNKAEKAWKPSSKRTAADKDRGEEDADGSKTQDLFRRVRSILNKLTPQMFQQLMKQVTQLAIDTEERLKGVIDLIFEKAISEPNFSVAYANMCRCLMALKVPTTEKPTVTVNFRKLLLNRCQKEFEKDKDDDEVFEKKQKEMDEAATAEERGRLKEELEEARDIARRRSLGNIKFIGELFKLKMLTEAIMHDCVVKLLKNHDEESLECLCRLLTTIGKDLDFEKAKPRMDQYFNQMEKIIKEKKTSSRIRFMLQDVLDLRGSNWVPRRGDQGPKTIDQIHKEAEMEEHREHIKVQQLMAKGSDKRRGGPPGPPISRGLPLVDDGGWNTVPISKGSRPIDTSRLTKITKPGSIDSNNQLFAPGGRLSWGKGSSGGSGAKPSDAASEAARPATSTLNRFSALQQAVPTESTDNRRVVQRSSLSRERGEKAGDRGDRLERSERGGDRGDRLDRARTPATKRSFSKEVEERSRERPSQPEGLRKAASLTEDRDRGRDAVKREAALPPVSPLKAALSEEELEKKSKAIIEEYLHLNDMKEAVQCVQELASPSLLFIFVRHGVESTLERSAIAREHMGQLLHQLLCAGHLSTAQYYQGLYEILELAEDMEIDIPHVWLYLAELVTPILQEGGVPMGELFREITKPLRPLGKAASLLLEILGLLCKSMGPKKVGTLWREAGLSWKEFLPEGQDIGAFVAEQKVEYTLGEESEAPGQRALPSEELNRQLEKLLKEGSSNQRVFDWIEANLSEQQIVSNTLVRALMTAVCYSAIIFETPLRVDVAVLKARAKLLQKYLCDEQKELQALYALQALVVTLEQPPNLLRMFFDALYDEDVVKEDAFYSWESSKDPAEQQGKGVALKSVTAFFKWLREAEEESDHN

“unlabeled 4E-BP1 protein (from UniProt Q13541 1-118) (natural protein; other documents disagree on this pair)”: the Kd (as a rule, the constant that tells how readily two partners part at equilibrium) in test [1] stood at 19 nM. Moreover, in test [2], the IC50 – broadly, the concentration that inhibits the measured activity by half – amounted to 11 nM. As to `O=C(O)c1ccc(N2C(=O)/C(=C\c3ccc(-c4ccc([N+](=O)[O-])cc4)o3)C=C2c2ccccc2)cc1` [4E1RCat], the IC50 at eIF4E amounted to 1800 ± 600 nM.
